Measured values: patent US20250066456A1 (NOVAVAX, published 2025)

Tests used:
[1] = target: T1, BV2523 (recombinant CoV S glycoprotein, BA.2) (SARS-CoV-2, UniProt P0DTC2 14-1273); experiment: ELISA on coated rS
[2] = target: T2, BV2540 (recombinant CoV S glycoprotein, BA.5) (SARS-CoV-2, UniProt P0DTC2 14-1273); experiment: ELISA on coated rS
[3] = target: T3, BV2542 (recombinant CoV S glycoprotein, BA.2.12.1) (SARS-CoV-2, UniProt P0DTC2 14-1273); experiment: ELISA on coated rS
[4] = target: T4, RBD of a CoV S glycoprotein related to a CoV S glycoprotein from the SARS-CoV-2 omicron strain (SARS-CoV-2 omicron strain); experiment: BLI, RBD-His on Ni-NTA biosensor, antibody analyte
T4 construct: domain: RBD

[5] = target: BV2373 (recombinant CoV S glycoprotein, Prototype) (SARS-CoV-2, UniProt P0DTC2 14-1273); experiment: BLI, antibody on anti-mouse Fc biosensor, rS analyte
[6] = target: BV2425 (recombinant CoV S glycoprotein, Alpha) (SARS-CoV-2, UniProt P0DTC2 14-1273); experiment: as above
[7] = target: BV2438 (recombinant CoV S glycoprotein, Beta) (SARS-CoV-2, UniProt P0DTC2 14-1273); experiment: as above
[8] = target: BV2443 (recombinant CoV S glycoprotein, Gamma) (SARS-CoV-2, UniProt P0DTC2 14-1273); experiment: as above
[9] = target: BV2465 (recombinant CoV S glycoprotein, Delta) (SARS-CoV-2, UniProt P0DTC2 14-1273); experiment: as above
[10] = target: T5, BV2509 (recombinant CoV S glycoprotein, BA.1) (SARS-CoV-2, UniProt P0DTC2 14-1273); experiment: as above
[11] = target: T1, BV2523 (recombinant CoV S glycoprotein, …); experiment: as above
[12] = target: T2, BV2540 (recombinant CoV S glycoprotein, …); experiment: as above
[13] = target: T6, BV2541 (recombinant CoV S glycoprotein, BA.4) (SARS-CoV-2, UniProt P0DTC2 14-1273); experiment: as above
[14] = target: T3, BV2542 (recombinant CoV S glycoprotein, …); experiment: as above
[15] = target: T7, BV2561 (recombinant CoV S glycoprotein, BA.2.75) (SARS-CoV-2, UniProt P0DTC2 14-1273); experiment: as above
[16] = target: T8, BV2562 (recombinant CoV S glycoprotein, BA.4.6) (SARS-CoV-2, UniProt P0DTC2 14-1273); experiment: as above
[17] = target: T5, BV2509 (recombinant CoV S glycoprotein, …); experiment: hACE2 receptor inhibition ELISA on coated rS; competitor hACE2-His
[18] = target: T1, BV2523 (recombinant CoV S glycoprotein, …); experiment: as above
[19] = target: T2, BV2540 (recombinant CoV S glycoprotein, …); experiment: as above
[20] = target: T6, BV2541 (recombinant CoV S glycoprotein, …); experiment: as above
[21] = target: T3, BV2542 (recombinant CoV S glycoprotein, …); experiment: as above
[22] = target: T7, BV2561 (recombinant CoV S glycoprotein, …); experiment: as above
[23] = target: T8, BV2562 (recombinant CoV S glycoprotein, …); experiment: as above
[24] = target: BV2589 (recombinant CoV S glycoprotein, BQ.1.1) (SARS-CoV-2, UniProt P0DTC2 14-1273); experiment: as above

B1: 425.6 (antibody, V domains shown)
VH: VQLKQSGPSLVQPSQSLSITCTVSGFSLTSYGIHWVRQSPGKGLEWLGVIWRGGSTDYNAAFMSRLTITKDNSKSQVFFKMNSLQADDTAIYYCATHTEGDDVDYWGQGTSVTVSS
VL: QIVLTQSPAIMSVSPGEKVTMTCSASSTMSFMYWYQQKPGSSPRLLIYDTSNLASGVPVRFSGSGSGTSYSLTISRVEAEDAATYYCQQWNTYPLTFGAGTKLELKR
EC50 [1]: 0.028 µg/mL
EC50 [2]: 0.014 µg/mL
EC50 [3]: 0.034 µg/mL
Kd [4]: 4890 pM
koff [4]: 0.00123 s⁻¹
kon [4]: 272000 M⁻¹ s⁻¹
Kd [5]: < 1 pM
Kd [6]: < 1 pM
Kd [7]: < 1 pM
Kd [8]: < 1 pM
Kd [9]: < 1 pM
Kd [10]: 3.91 pM
koff [10]: 1.54e-07 s⁻¹
kon [10]: 41300 M⁻¹ s⁻¹
Kd [11]: 3.69 pM
koff [11]: 1.37e-07 s⁻¹
kon [11]: 38200 M⁻¹ s⁻¹
Kd [12]: 1.76 pM
koff [12]: 1.5e-07 s⁻¹
kon [12]: 85900 M⁻¹ s⁻¹
Kd [13]: < 1 pM
Kd [14]: 3.81 pM
koff [14]: 1.51e-07 s⁻¹
kon [14]: 40200 M⁻¹ s⁻¹
Kd [15]: < 1 pM
koff [15]: < 1e-07 s⁻¹
kon [15]: 46900 M⁻¹ s⁻¹
Kd [16]: < 1 pM
IC50 [17]: > 3 µg/mL
IC50 [18]: 0.032 µg/mL
IC50 [19]: 0.028 µg/mL
IC50 [20]: 0.037 µg/mL
IC50 [21]: 0.028 µg/mL
IC50 [22]: > 5 µg/mL
IC50 [23]: 0.071 µg/mL
IC50 [24]: > 3 µg/mL

B2: 35.13 (antibody, V domains shown)
VH: QVQLQQSGAELGKPGASVKLSCRASGYTFTRYYIYWVKQRPGQGLEWIGEINPSNGDTHFNEKFKTKATLTVDKSSSSAHIHLTSLTSEDSAVYYCSIHAYSFDFWGQGTTLTVSS
VL: EIQMTQSPSSMSASLGDRITITCQATQDIVKNLNWYQQKPGKPPSFLIYHATELAKGVPSRFSGSGSGSDYSLTISNLESEDFADYYCLQFYDFPFTFGAGTKLELKR
EC50 [1]: 0.053 µg/mL
EC50 [2]: 1.03 µg/mL
EC50 [3]: 0.104 µg/mL
Kd [4]: 1.93 pM
kon [4]: 142000 M⁻¹ s⁻¹
Kd [5]: 5.29 pM
koff [5]: 1.67e-07 s⁻¹
kon [5]: 33000 M⁻¹ s⁻¹
Kd [6]: 3.22 pM
Kd [7]: 15.2 pM
koff [7]: 1.54e-07 s⁻¹
kon [7]: 10500 M⁻¹ s⁻¹
Kd [8]: 19.8 pM
koff [8]: 1.7e-07 s⁻¹
kon [8]: 9090 M⁻¹ s⁻¹
Kd [9]: 3.73 pM
koff [9]: 1.42e-07 s⁻¹
kon [9]: 41900 M⁻¹ s⁻¹
Kd [10]: 9.82 pM
koff [10]: 1.52e-07 s⁻¹
kon [10]: 15500 M⁻¹ s⁻¹
Kd [11]: 8.43 pM
koff [11]: 1.61e-07 s⁻¹
kon [11]: 19100 M⁻¹ s⁻¹
Kd [12]: 7.23 pM
koff [12]: 1.21e-07 s⁻¹
kon [12]: 17600 M⁻¹ s⁻¹
Kd [13]: < 1 pM
koff [13]: < 1e-07 s⁻¹
kon [13]: 22700 M⁻¹ s⁻¹
Kd [14]: 7.87 pM
koff [14]: 1.14e-07 s⁻¹
kon [14]: 15000 M⁻¹ s⁻¹
Kd [15]: 6.87 pM
Kd [16]: < 1 pM
koff [16]: < 1e-07 s⁻¹
kon [16]: 38500 M⁻¹ s⁻¹
IC50 [17]: 0.097 µg/mL
IC50 [18]: 0.126 µg/mL
IC50 [19]: > 3 µg/mL
IC50 [20]: > 5 µg/mL
IC50 [21]: 0.177 µg/mL
IC50 [22]: 0.169 µg/mL
IC50 [23]: > 5 µg/mL
IC50 [24]: > 3 µg/mL

B3: 322.3 (antibody, V domains shown)
VH: RVQLQQSGPELVKPGASVTISCKASGYIFTSDYIHWVKQRPGQGPEWIGWIYPGNINTKYNEKFKGKATLTADKSSSTAYMQLSSLTSEDSAVYFCARDDGNLYYYAMDYWGQGTSVTVSS
VL: NIVLTQSPASLAVSLGQRATISCRASESVDSYGSSFMHWYQQKPGQPPKLLIYLASNLESGVPARFSGSGSRTDFTLTIDPVEADDAATYYCQQNNEDPRTFGGGTKLEIK
EC50 [1]: 0.195 µg/mL
EC50 [2]: 0.045 µg/mL
EC50 [3]: 0.225 µg/mL
Kd [4]: 1.69 pM
kon [4]: 138000 M⁻¹ s⁻¹
Kd [5]: 57.1 pM
Kd [6]: 78.7 pM
Kd [7]: 6.48 pM
koff [7]: 1.24e-07 s⁻¹
kon [7]: 20100 M⁻¹ s⁻¹
Kd [8]: 107 pM
koff [8]: 1.26e-07 s⁻¹
kon [8]: 1180 M⁻¹ s⁻¹
Kd [9]: 78.7 pM
Kd [10]: 87.4 pM
Kd [11]: 40.5 pM
Kd [12]: 13.2 pM
koff [12]: 1.46e-07 s⁻¹
kon [12]: 11100 M⁻¹ s⁻¹
Kd [13]: < 1 pM
Kd [14]: 41.5 pM
koff [14]: 1.22e-07 s⁻¹
kon [14]: 2690 M⁻¹ s⁻¹
Kd [15]: 4.47 pM
Kd [16]: < 1 pM
IC50 [17]: 0.493 µg/mL
IC50 [18]: 0.224 µg/mL
IC50 [19]: 0.779 µg/mL
IC50 [20]: 0.543 µg/mL
IC50 [21]: 0.866 µg/mL
IC50 [22]: > 5 µg/mL
IC50 [23]: 0.411 µg/mL
IC50 [24]: 0.265 µg/mL
